# Molecular target: HLA-A*02:01 (Homo sapiens, UniProt P04439, D140Y/D185E/D98H/E176V/E277Q/G131W/G231S/I119V/I121R/I166T/I218V/L300P/L318F/N151K/N90K/P208A/P217A/Q86G/Q94H/R138H/R169H/T345S)
# Assay: MHC binding assay (UV-ligand exchange, ELISA of stabilized MHC complexes)
# Details: MHC class I binding score; binding to HLA-A*02:01 ranged by peptide exchange yield (UV-ligand exchange, ELISA)
# Method in brief: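 Binding scored as exchange yield, detected via β2m of stabilized complexes in an HRP/TMB ELISA read at 450 nm after streptavidin capture of 100-fold diluted monomers for 1 h at 37 °C. Complexes came from UV irradiation cleaving a photolabile peptide, exchanged for the candidate.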
row,Peptide exchange,Substance
1,″+++″ (≥50% = +++),330 (QLALKVEGV; listed as Homo sapiens) [compound 330]
2,″+++″ (≥50% = +++),331 (KVDTVWVNV; listed as Homo sapiens) [compound 331]
3,″+++″ (≥50% = +++),332 (YLISELEAA; listed as Homo sapiens) [compound 332]
4,″++″ (≥20% = ++),333 (FLPDANSSV; listed as Homo sapiens) [compound 333]
5,″+++″ (≥50% = +++),334 (TLTKVLVAL; listed as Homo sapiens) [compound 334]
6,″+++″ (≥50% = +++),335 (YSLSSVVTV; listed as Homo sapiens) [compound 335]
7,″+++″ (≥50% = +++),336 (ILLTAIVQV; listed as Homo sapiens) [compound 336]
8,″++++″ (≥75% = ++++),337 (HLLSELEAAPYL; listed as Homo sapiens) [compound 337]
9,″++++″ (≥75% = ++++),339 (GLWEIENNPTVKA; listed as Homo sapiens) [compound 339]
10,″++++″ (≥75% = ++++),340 (ALLSMTFPL; listed as Homo sapiens) [compound 340]
11,″+++″ (≥50% = +++),341 (SQIALNEKLVNL; listed as Homo sapiens) [compound 341]
12,″+++″ (≥50% = +++),342 (HIYDKVMTV; listed as Homo sapiens) [compound 342]
13,″+++″ (≥50% = +++),343 (SLLEVNEESTV; listed as Homo sapiens) [compound 343]
14,″+++″ (≥50% = +++),344 (YLQDQHLLLTV; listed as Homo sapiens) [compound 344]
15,″+++″ (≥50% = +++),345 (VIWKALIHL; listed as Homo sapiens) [compound 345]
16,″+++″ (≥50% = +++),346 (LLDSKVPSV; listed as Homo sapiens) [compound 346]

row,Peptide exchange,Substance
1,″++++″ (≥75% = ++++),347 (SLFKHDPAAWEA; listed as Homo sapiens) [compound 347]
2,″++++″ (≥75% = ++++),348 (ILLDVKTRL; listed as Homo sapiens) [compound 348]
3,″++++″ (≥75% = ++++),349 (SLTEYLQNV; listed as Homo sapiens) [compound 349]
4,″+++″ (≥50% = +++),350 (ALLDVTHSELTV; listed as Homo sapiens) [compound 350]
5,″+++″ (≥50% = +++),351 (SLIPNLRNV; listed as Homo sapiens) [compound 351]
6,″+++″ (≥50% = +++),352 (SLLELLHIYV; listed as Homo sapiens) [compound 352]
7,″++″ (≥20% = ++),353 (YLFEMDSSL; listed as Homo sapiens) [compound 353]
8,″++″ (≥20% = ++),354 (LILEGVDTV; listed as Homo sapiens) [compound 354]
9,″++″ (≥20% = ++),355 (SIQQSIERLLV; listed as Homo sapiens) [compound 355]
10,″+++″ (≥50% = +++),356 (KLLGKLPEL; listed as Homo sapiens) [compound 356]
11,″+++″ (≥50% = +++),357 (SMHDLVLQV; listed as Homo sapiens) [compound 357]
12,″++++″ (≥75% = ++++),358 (ALDEYTSEL; listed as Homo sapiens) [compound 358]
13,″+++″ (≥50% = +++),359 (YLLPESVDL; listed as Homo sapiens) [compound 359]
14,″+++″ (≥50% = +++),361 (ALYELEGTTV; listed as Homo sapiens) [compound 361]
15,″+++″ (≥50% = +++),362 (TLYGLSVLL; listed as Homo sapiens) [compound 362]
16,″++″ (≥20% = ++),363 (KVLDVSDLESV; listed as Homo sapiens) [compound 363]
